“And” between values parts separate entries of the source, which are not always exact repeats. Equal values may be shown once.
Tests used:
[1] = biological target: membrane-bound human FcγRIIB on Raji cells (human) (UniProt P31994); experiment: FACS on Raji cells (FACS021), constant aggregated IgG; competitor SM101 Ref. Std. 0.125 µg/µL
[2] = biological target: membrane-bound human FcγRIIB on Raji cells (human) (UniProt P31994); experiment: FACS on Raji cells, aggregated Beriglobin at 5.0 (µg/µL)
[3] = biological target: membrane-bound human FcγRIIB on Raji cells (human) (UniProt P31994); experiment: FACS on Raji cells (FACS021), constant aggregated IgG; competitor SM101 IMP 0.25 µg/µL
[4] = biological target: membrane-bound human FcγRIIB on Raji cells (human) (UniProt P31994); experiment: FACS on Raji cells (FACS021), constant aggregated IgG; competitor SM101 IMP 0.0078 µg/µL
[5] = biological target: membrane-bound human FcγRIIB on Raji cells (human) (UniProt P31994); experiment: FACS on Raji cells (FACS021), constant aggregated IgG; competitor SM101 IMP 0.0625 µg/µL
[6] = biological target: membrane-bound human FcγRIIB on Raji cells (human) (UniProt P31994); experiment: FACS on Raji cells (FACS021), constant aggregated IgG; competitor SM101 IMP 0.125 µg/µL
[7] = biological target: membrane-bound human FcγRIIB on Raji cells (human) (UniProt P31994); experiment: FACS on viable Raji cells (FcγRIIB) with aggregated Beriglobin and no SM101; detected with anti-human IgG(H+L)-PE secondary antibody
[8] = biological target: membrane-bound human FcγRIIB on Raji cells (human) (UniProt P31994); experiment: FACS on Raji cells (FACS021), constant aggregated IgG; competitor SM101 Ref. Std. 0.0156 µg/µL
[9] = biological target: membrane-bound human FcγRIIB on Raji cells (human) (UniProt P31994); experiment: FACS: 0.1E6 Raji cells (FcγRIIB) with 2.5 µg aggregated Beriglobin at the stated pH; 1/200 anti-human IgG(H+L)-PE; secondary antibody alone in this panel 173; pH 7.2
[10] = biological target: membrane-bound human FcγRIIB on Raji cells (human) (UniProt P31994); experiment: FACS on Raji cells (FACS007), constant aggregated IgG; competitor SM101 0.125 µg/µL
[11] = biological target: membrane-bound human FcγRIIB on Raji cells (human) (UniProt P31994); experiment: FACS: 0.1E6 Raji cells (FcγRIIB) with 2.5 µg aggregated Beriglobin at the stated pH; 1/200 anti-human IgG(H+L)-PE; drawn table, secondary antibody control not subtracted; pH 6.7
[12] = biological target: membrane-bound human FcγRIIB on Raji cells (human) (UniProt P31994); experiment: FACS on Raji cells, aggregated Beriglobin at 2.5 (µg/µL)
[13] = biological target: membrane-bound human FcγRIIB on Raji cells (human) (UniProt P31994); experiment: FACS on Raji cells (FACS021), constant aggregated IgG; competitor SM101 Ref. Std. 0.25 µg/µL
[14] = biological target: membrane-bound human FcγRIIB on Raji cells (human) (UniProt P31994); experiment: FACS on Raji cells (FACS007), constant aggregated IgG; competitor SM101 0.0156 µg/µL
[15] = biological target: membrane-bound human FcγRIIB on Raji cells (human) (UniProt P31994); experiment: FACS: 0.1E6 Raji cells (FcγRIIB) with 2.5 µg aggregated Beriglobin at the stated pH; 1/200 anti-human IgG(H+L)-PE; secondary antibody alone in this panel 173

UniProt P31994, sequence (P31994 43-310): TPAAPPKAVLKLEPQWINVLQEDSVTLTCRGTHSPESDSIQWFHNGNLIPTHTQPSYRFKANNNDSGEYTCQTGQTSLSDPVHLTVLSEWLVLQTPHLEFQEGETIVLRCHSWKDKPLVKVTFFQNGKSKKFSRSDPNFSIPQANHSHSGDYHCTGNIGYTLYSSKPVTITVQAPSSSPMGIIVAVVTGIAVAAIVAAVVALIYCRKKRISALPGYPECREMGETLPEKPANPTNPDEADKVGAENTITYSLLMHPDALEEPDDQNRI

- Median Signal [1]: 362
- Median MFI [2]: 1230 and 1140 and 960
- Median Signal [3]: 281
- Median Signal [4]: 5310
- Median Signal [5]: 831
- Median Signal [6]: 478
- Median Signal [8]: 2330
- Median MFI at pH 7.2 (left panel) [9]: 561
- Median Signal [10]: 329
- Median MFI at pH 6.7 [11]: 578
- Median MFI [12]: 1350 and 1500 and 1000
- Median Signal [13]: 269
- Median Signal [14]: 2270
- Median MFI at pH 7.0 (left panel) [15]: 599
- Median MFI at pH 7.8 (left panel) [15]: 363
- Median MFI at pH 8.0 (left panel) [15]: 348
Substance: aggregated human IgG (aggregated Beriglobin, aggregated fraction isolated by size exclusion chromatography) (antibody)
- percent of gated viable cells in the upper right quadrant of the dot plot (PE-A above about 10^3) [7]: 84.7
